Changes are numbered by the printed parent chain. *1 amine or outer side, *2 acyl side, *3 side chain or, on linkers, in order; H or OH if unused. Where no end group is shown, it is not given here. Side-chain parts run from the residue outwards. [ ]: non-standard residue; d: D form. The star is where a group is joined. αMePhe(2-F) = C[C@](N)(Cc1ccccc1F)C(=O)O; γGlu = O=C(O)[C@H](CCC(=O)[*:2])N[*:1]; C14 diacid = O=C(O)CCCCCCCCCCCCC(=O)*; αMeY = C[C@](N)(Cc1ccc(O)cc1)C(=O)O; αMeL = CC(C)C[C@](C)(N)C(=O)O; Nle = CCCC[C@H](N)C(=O)O; Orn = NCCC[C@H](N)C(=O)O; AEEA = NCCOCCOCC(=O)O; Aib = CC(C)(N)C(=O)O
T1: human GIP receptor (human, UniProt P48546 22-466)
T1 construct: whole, on cells; also called hGIPR; human glucose-dependent insulinotropic polypeptide receptor
T1 sequence (looked up): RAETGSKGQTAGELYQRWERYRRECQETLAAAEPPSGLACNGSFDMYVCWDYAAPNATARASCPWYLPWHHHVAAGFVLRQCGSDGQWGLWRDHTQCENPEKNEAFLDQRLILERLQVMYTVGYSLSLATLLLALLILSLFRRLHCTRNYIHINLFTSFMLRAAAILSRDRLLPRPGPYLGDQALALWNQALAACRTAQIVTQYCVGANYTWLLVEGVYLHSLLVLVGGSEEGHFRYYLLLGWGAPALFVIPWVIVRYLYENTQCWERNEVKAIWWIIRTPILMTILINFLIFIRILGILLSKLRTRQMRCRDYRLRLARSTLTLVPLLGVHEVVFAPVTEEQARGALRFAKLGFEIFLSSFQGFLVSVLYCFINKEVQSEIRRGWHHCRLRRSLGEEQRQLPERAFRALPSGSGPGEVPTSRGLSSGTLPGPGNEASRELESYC

T2: human GIP receptor (human, UniProt P48546 22-466)
T2 sequence (looked up): T1 sequence (looked up)

B1: Y-Aib-EGT-αMeF(2F)-TSD-4Pal-Aib-I-αMeL-LD-Orn-QAQ-Aib-Orn-FIK(PEG6-(γ-Glu)-(10-(4-carboxyphenoxy)decanoyl))-αMeY-LIK(PEG6-(γ-Glu)-(10-(4-carboxyphenoxy)decanoyl … (peptide)
peptide: YXEGTXTSDXXIXLDXQAQXXFIKXLIKGGPSSGAPPPS
modifications: Aib2, αMeF(2F)6, 4Pal10, Aib11, αMeL13, Orn16, Aib20, Orn21, K24(Z1), αMeY25, K28(Z1), C-term NH2; Z1=PEG6-(γ-Glu)-(10-(4-carboxyphenoxy)decanoyl)
B2: Y-Aib-EGT-αMeF(2F)-TSDY-Aib-I-αMeL-LD-Orn-QAQ-Aib-Orn-FIK((2-[2-(2-Amino-ethoxy)-ethoxy]-acetyl)2-(γ-Glu)--C10_4CP)-αMeY-LIK((2-[2-(2-Amino-ethoxy)-ethoxy]-acet … (peptide)
peptide: B1 peptide with X10Y
modifications: Aib2, αMeF(2F)6, Aib11, αMeL13, Orn16, Aib20, Orn21, K24(Z1), αMeY25, K28(Z1), C-term NH2; Z1=AEEA2-(γ-Glu)-C10_4CP (so in the source)
B3: Y-Aib-EGT-αMeF(2F)-TSD-4Pal-Aib-I-αMeL-LD-Orn-QAQ-Aib-Orn-FIK((2-[2-(2-Amino-ethoxy)-ethoxy]-acetyl)-(γ-Glu)3-CO-(CH2)12-CO2H)-αMeY-LIK((2-[2-(2-Amino-ethoxy)-e … (peptide)
peptide: B1 peptide
modifications: Aib2, αMeF(2F)6, 4Pal10, Aib11, αMeL13, Orn16, Aib20, Orn21, K24(Z1), αMeY25, K28(Z1), C-term NH2; Z1=AEEA-(γ-Glu)3-CO-(CH2)12-CO2H
B4: Y-Aib-EGT-αMeF(2F)-TSD-4Pal-Aib-I-αMeL-LD-Orn-QAQ-Aib-Orn-FIK((2-[2-(2-Amino-ethoxy)-ethoxy]-acetyl)-(γ-Glu)3-(10-(4-carboxyphenoxy)decanoyl))-αMeY-LIK((2-[2-(2 … (peptide)
peptide: B1 peptide
modifications: Aib2, αMeF(2F)6, 4Pal10, Aib11, αMeL13, Orn16, Aib20, Orn21, K24(Z1), αMeY25, K28(Z1), C-term NH2; Z1=AEEA-(γ-Glu)3-(10-(4-carboxyphenoxy)decanoyl)
B5: Y-Aib-EGT-αMeF(2F)-TSD-4Pal-Aib-I-αMeL-LD-Orn-QAQ-Aib-Orn-FIK(PEG5-(γ-Glu)-(10-(4-carboxyphenoxy)decanoyl))-αMeY-LIK(PEG5-(γ-Glu)-(10-(4-carboxyphenoxy)decanoyl … (peptide)
peptide: B1 peptide
modifications: Aib2, αMeF(2F)6, 4Pal10, Aib11, αMeL13, Orn16, Aib20, Orn21, K24(Z1), αMeY25, K28(Z1), C-term NH2; Z1=PEG5-(γ-Glu)-(10-(4-carboxyphenoxy)decanoyl)
B6: Y-Aib-EGT-αMeF(2F)-TSD-4Pal-Aib-I-αMeL-LD-Orn-QAQ-Aib-EFIK((2-[2-(2-Amino-ethoxy)-ethoxy]-acetyl)3-(γ-Glu)-(10-(4-carboxyphenoxy)decanoyl)-αMeY-LIK((2-[2-(2-Ami … (peptide)
peptide: B1 peptide with X21E
modifications: Aib2, αMeF(2F)6, 4Pal10, Aib11, αMeL13, Orn16, Aib20, K24(Z1), αMeY25, K28(Z1), C-term NH2; Z1=AEEA3-(γ-Glu)-(10-(4-carboxyphenoxy)decanoyl)
B7: Example 221 (peptide)
peptide: YXEGTXTSDXSIXLDXKAQXEFIXXLIEGGPSSGAPPPSK
modifications: Y-Aib-EGT-αMeF(2F)-TSD-4Pal-SI-αMeL-LD-Orn-K((2-[2-(2-Amino-ethoxy)-ethoxy]-acetyl)2-CO-(CH2)12-CO2H)AQ-Aib-EFI-(D-Glu)-αMeY-LIEGGPSSGAPPPSK((2-[2-(2-Amino-ethoxy)-ethoxy]-acetyl)2-CO-(CH2)12-CO2H)-NH2
B8: Example 218 (peptide)
peptide: B1 peptide with Q17I, X21K, K28E
modifications: Y-Aib-EGT-αMeF(2F)-TSD-4Pal-Aib-I-αMeL-LD-Orn-IAQ-Aib-K((2-[2-(2-Amino-ethoxy)-ethoxy]-acetyl)2-(γ-Glu)-CO-(CH2)12-CO2H)FIK((2-[2-(2-Amino-ethoxy)-ethoxy]-acetyl)2-(γ-Glu)-CO-(CH2)12-CO2H)-αMeY-LIEGGPSSGAPPPS-NH2
B9: Example 219 (peptide)
peptide: B1 peptide with Q17I, X21E
modifications: Y-Aib-EGT-αMeF(2F)-TSD-4Pal-Aib-I-αMeL-LD-Orn-IAQ-Aib-EFIK((2-[2-(2-Amino-ethoxy)-ethoxy]-acetyl)2-(γ-Glu)-CO-(CH2)12-CO2H)-αMeY-LIK((2-[2-(2-Amino-ethoxy)-ethoxy]-acetyl)2-(γ-Glu)-CO-(CH2)12-CO2H)GGPSSGAPPPS-NH2

Molecular target: T3, human glucagon receptor (human, UniProt P47871 26-477)
T3 construct: whole, on cells; also called hGCGR; hGcgR
Assay: SPA competition vs [125I]-Gcg, hGcgR membranes
T3 sequence (P47871 26-477): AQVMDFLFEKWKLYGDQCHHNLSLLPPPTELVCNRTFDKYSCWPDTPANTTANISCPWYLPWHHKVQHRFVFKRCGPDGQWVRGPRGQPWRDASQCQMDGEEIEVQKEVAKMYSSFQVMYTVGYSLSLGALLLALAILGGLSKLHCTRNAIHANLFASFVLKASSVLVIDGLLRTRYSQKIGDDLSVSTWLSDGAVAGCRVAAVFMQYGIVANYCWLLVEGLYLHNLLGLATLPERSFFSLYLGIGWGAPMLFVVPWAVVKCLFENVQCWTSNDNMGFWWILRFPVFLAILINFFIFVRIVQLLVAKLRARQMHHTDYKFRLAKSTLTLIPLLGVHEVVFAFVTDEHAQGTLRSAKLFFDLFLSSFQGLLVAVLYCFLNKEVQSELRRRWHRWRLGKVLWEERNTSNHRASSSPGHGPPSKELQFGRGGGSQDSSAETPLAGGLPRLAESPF

Binder | Ki [nM]
B1 | 269
B2 | 28.6
B3 | 115
B4 | 73.3
B5 | 144
B6 | 753
Y[Aib]EGT[αMePhe(2-F)]TSD[Nle]SI[αMeL]LD[Orn]QAQ[Aib][Orn]FIK([AEEA-AEEA-γGlu-C14 diacid])[αMeY]LIK([AEEA-AEEA-γGlu-C14 diacid])GGPSSGAPPPS-NH2 | 37.8

Molecular target: T1, human GIP receptor
Assay: SPA competition vs [125I]-GIP, hGIPR membranes

Binder | Ki [nM]
B1 | 0.0291
B2 | 0.0264
B3 | 0.046
B4 | 0.0714
B5 | 0.0387
B6 | 0.0261
Y[Aib]EGT[αMePhe(2-F)]TSD[Nle]SI[αMeL]LD[Orn]QAQ[Aib][Orn]FIK([AEEA-AEEA-γGlu-C14 diacid])[αMeY]LIK([AEEA-AEEA-γGlu-C14 diacid])GGPSSGAPPPS-NH2 | 0.0288

Molecular target: T2, human GIP receptor
Assay: cell-based or functional assay

Binder | cAMP EC50 (1.0% HSA) [nM] | cAMP Emax (1.0% HSA) [%]
B7 | 0.838 | 67.4
B8 | 3.27 | 95.9
B9 | 2.86 | 

Molecular target: human glucagon receptor (human, UniProt P47871 26-477)
Assay: cell-based or functional assay

Binder | cAMP EC50 (1.0% HSA) [nM]
B7 | > 9950
B8 | > 9950
B9 | > 9950

Molecular target: human GLP-1 receptor (human, UniProt P43220 24-463)
Assay: cell-based or functional assay

Binder | cAMP EC50 (1.0% HSA) [nM] | cAMP Emax (1.0% HSA) [%]
B7 | 17.9 | 
B8 | 36.6 | 121
B9 | 25.9 | 

Molecular target: T4, human GLP-1 receptor (human, UniProt P43220 24-463)
T4 construct: whole, on cells; also called hGLP-1R; human glucagon-like peptide-1 receptor
Assay: SPA competition vs [125I]-GLP-1, hGLP-1R membranes
Method in brief: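 Kᵢ values are geometric means (SEM) over replicates run on separate days, derived from IC₅₀ of four-parameter curve fits. Buffer: HEPES 25 mM pH 7.4 with CaCl₂ 2.5 mM, MgCl₂ 1 mM, bacitracin 0.1%, TWEEN-20 0.003%, EDTA-free protease inhibitors.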

Binder | Ki [nM]
B1 | 0.0943
B2 | 0.233
B3 | 0.299
B4 | 0.217
B5 | 0.0847
B6 | 0.352
Y[Aib]EGT[αMePhe(2-F)]TSD[Nle]SI[αMeL]LD[Orn]QAQ[Aib][Orn]FIK([AEEA-AEEA-γGlu-C14 diacid])[αMeY]LIK([AEEA-AEEA-γGlu-C14 diacid])GGPSSGAPPPS-NH2 | 0.27

Source: patent publication US20230265151A1, “GIP/GLP1 CO-AGONIST COMPOUNDS” (priority 2020, published 2023)
